# Measurements as given in the supplement of paper PMC9112550, “Optimization of the antimicrobial peptide Bac7 by deep mutational scanning” (BMC Biology, 2022).
# Test system: Escherichia coli TOP10
# Experiment: shrunken log2 fold change of peptide-encoding DNA abundance (4.5 h post-induction vs induction); higher = less antimicrobial activity (less host growth inhibition)
# Conditions: time post-induction: 4.5 h; library: site-saturation at positions 5, 18, 19, 20
# 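Also: peptides expressed intracellularly from a pBAD plasmid library in pooled LB shake-flask culture, induced with 0.3% L-arabinose, DNA abundance read by NGS, three biological replicates, DESeq2 with apeglm shrinkage.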
row,Sequence,shrunken log2 fold change
1,RRIRMRPPRLPRPRPRPGYLPRP,0.0963
2,RRIRFRPPRLPRPRPRPCEAPRP,0.122
3,RRIRVRPPRLPRPRPRPNHTPRP,-0.402
4,RRIRTRPPRLPRPRPRPESSPRP,-0.0341
5,RRIRRRPPRLPRPRPRPVADPRP,0.228
6,RRIRVRPPRLPRPRPRPVWTPRP,0.155
7,RRIRARPPRLPRPRPRPIGVPRP,0.892
8,RRIRFRPPRLPRPRPRPWRKPRP,-0.0813
9,RRIRTRPPRLPRPRPRPTVPPRP,0.0189
10,RRIRHRPPRLPRPRPRPRCPPRP,0.169
11,RRIRHRPPRLPRPRPRPYSKPRP,-1.03
12,RRIRARPPRLPRPRPRPLDLPRP,0.227
13,RRIRERPPRLPRPRPRPMMQPRP,-0.0983
14,RRIRSRPPRLPRPRPRPLACPRP,0.268
15,RRIRMRPPRLPRPRPRPIHEPRP,-0.301
16,RRIRQRPPRLPRPRPRPMMGPRP,-0.107
17,RRIRTRPPRLPRPRPRPIRCPRP,0.0185
18,RRIRIRPPRLPRPRPRPHSWPRP,-0.327
19,RRIRTRPPRLPRPRPRPHQGPRP,-0.0325
20,RRIRARPPRLPRPRPRPAKSPRP,0.061
21,RRIRKRPPRLPRPRPRPQRPPRP,0.518
22,RRIRLRPPRLPRPRPRPKRAPRP,0.203
23,RRIRERPPRLPRPRPRPKVAPRP,0.0804
24,RRIRRRPPRLPRPRPRPKEAPRP,0.0205
25,RRIRGRPPRLPRPRPRPGMAPRP,0.877

row,Sequence,shrunken log2 fold change
1,RRIRRRPPRLPRPRPRPNDEPRP,-0.0407
2,RRIRCRPPRLPRPRPRPVNPPRP,-0.176
3,RRIRKRPPRLPRPRPRPAQIPRP,0.342
4,RRIRWRPPRLPRPRPRPKRQPRP,0.167
5,RRIRPRPPRLPRPRPRPKPMPRP,0.218
6,RRIRARPPRLPRPRPRPVQWPRP,0.546
7,RRIRTRPPRLPRPRPRPFVDPRP,-0.0538
8,RRIRERPPRLPRPRPRPSYWPRP,-0.266
9,RRIRYRPPRLPRPRPRPNTIPRP,-1.05
10,RRIRPRPPRLPRPRPRPYEHPRP,-0.408
11,RRIRKRPPRLPRPRPRPKSDPRP,-0.015
12,RRIRLRPPRLPRPRPRPQMHPRP,-0.295
13,RRIRDRPPRLPRPRPRPKLAPRP,0.271
14,RRIRFRPPRLPRPRPRPMTGPRP,-0.0757
15,RRIRERPPRLPRPRPRPGSRPRP,-0.0607
16,RRIRLRPPRLPRPRPRPCFVPRP,-0.392
17,RRIRRRPPRLPRPRPRPLRIPRP,0.724
18,RRIRLRPPRLPRPRPRPMPEPRP,0.221
19,RRIRHRPPRLPRPRPRPDCRPRP,-0.0597
20,RRIRPRPPRLPRPRPRPKLHPRP,-0.00244
21,RRIRDRPPRLPRPRPRPMITPRP,-0.115
22,RRIRPRPPRLPRPRPRPCIPPRP,-0.556
23,RRIRHRPPRLPRPRPRPDWLPRP,0.0441
24,RRIRLRPPRLPRPRPRPAPYPRP,0.0426
25,RRIRTRPPRLPRPRPRPERLPRP,-0.0511

row,Sequence,shrunken log2 fold change
1,RRIRNRPPRLPRPRPRPMAPPRP,-0.0631
2,RRIRARPPRLPRPRPRPGKQPRP,0.292
3,RRIRWRPPRLPRPRPRPWMKPRP,-0.225
4,RRIRNRPPRLPRPRPRPDVGPRP,-0.251
5,RRIRARPPRLPRPRPRPQDRPRP,-0.139
6,RRIRVRPPRLPRPRPRPPHRPRP,0.29
7,RRIRKRPPRLPRPRPRPMVAPRP,0.629
8,RRIRCRPPRLPRPRPRPRAWPRP,0.24
9,RRIRARPPRLPRPRPRPQSQPRP,-0.0155
10,RRIRFRPPRLPRPRPRPYREPRP,-0.468
11,RRIRVRPPRLPRPRPRPHWQPRP,-0.024
12,RRIRYRPPRLPRPRPRPPGVPRP,0.259
13,RRIRVRPPRLPRPRPRPLCWPRP,0.00832
14,RRIRCRPPRLPRPRPRPWIDPRP,-0.00146
15,RRIRSRPPRLPRPRPRPVIWPRP,0.0455
16,RRIRPRPPRLPRPRPRPRFTPRP,0.116
17,RRIRPRPPRLPRPRPRPKFQPRP,0.103
18,RRIRHRPPRLPRPRPRPQFFPRP,-0.619
19,RRIRNRPPRLPRPRPRPTVDPRP,0.0566
20,RRIRKRPPRLPRPRPRPNKHPRP,-0.122
21,RRIRYRPPRLPRPRPRPPELPRP,0.162
22,RRIRHRPPRLPRPRPRPYLVPRP,-0.162
23,RRIRKRPPRLPRPRPRPENSPRP,-0.131
24,RRIRFRPPRLPRPRPRPDYGPRP,-0.238
25,RRIRERPPRLPRPRPRPFNRPRP,-0.0972

row,Sequence,shrunken log2 fold change
1,RRIRCRPPRLPRPRPRPWRMPRP,-0.116
2,RRIRERPPRLPRPRPRPKRNPRP,-0.114
3,RRIRHRPPRLPRPRPRPRRWPRP,-0.00291
4,RRIRSRPPRLPRPRPRPSWPPRP,-0.135
5,RRIRKRPPRLPRPRPRPHAFPRP,0.106
6,RRIRTRPPRLPRPRPRPETRPRP,-0.0794
7,RRIRTRPPRLPRPRPRPQFHPRP,-0.541
8,RRIRCRPPRLPRPRPRPRTWPRP,0.326
9,RRIRRRPPRLPRPRPRPGKHPRP,-0.0322
10,RRIRSRPPRLPRPRPRPTFFPRP,-0.0698
11,RRIRWRPPRLPRPRPRPHMFPRP,-0.0668
12,RRIRMRPPRLPRPRPRPSWDPRP,0.709
13,RRIRSRPPRLPRPRPRPELIPRP,-0.123
14,RRIRNRPPRLPRPRPRPSWIPRP,-0.425
15,RRIRARPPRLPRPRPRPIHPPRP,0.0444
16,RRIRFRPPRLPRPRPRPIRVPRP,0.0245
17,RRIRYRPPRLPRPRPRPIVTPRP,-0.015
18,RRIRGRPPRLPRPRPRPNRHPRP,0.231
19,RRIRWRPPRLPRPRPRPEDSPRP,0.769
20,RRIRWRPPRLPRPRPRPTDHPRP,-0.307
21,RRIRPRPPRLPRPRPRPYPAPRP,-0.582
22,RRIRIRPPRLPRPRPRPEPPPRP,0.254
23,RRIRKRPPRLPRPRPRPFWPPRP,0.537
24,RRIRERPPRLPRPRPRPTFIPRP,-0.291
25,RRIRLRPPRLPRPRPRPNLRPRP,-0.0377

row,Sequence,shrunken log2 fold change
1,RRIRMRPPRLPRPRPRPCYMPRP,-0.605
2,RRIRHRPPRLPRPRPRPAFIPRP,-0.037
3,RRIRQRPPRLPRPRPRPWVLPRP,0.0639
4,RRIRNRPPRLPRPRPRPGTEPRP,-0.145
5,RRIRRRPPRLPRPRPRPTMAPRP,0.392
6,RRIRDRPPRLPRPRPRPDDTPRP,0.336
7,RRIRLRPPRLPRPRPRPIKRPRP,-0.466
8,RRIRPRPPRLPRPRPRPCFAPRP,0.0019
9,RRIRMRPPRLPRPRPRPFLAPRP,0.0298
10,RRIRWRPPRLPRPRPRPCTTPRP,-0.183
11,RRIRSRPPRLPRPRPRPHYGPRP,-0.00176
12,RRIRFRPPRLPRPRPRPCVTPRP,-0.492
13,RRIRMRPPRLPRPRPRPLHSPRP,0.0835
14,RRIRIRPPRLPRPRPRPKNYPRP,-0.417
15,RRIRVRPPRLPRPRPRPFCSPRP,0.0261
16,RRIRQRPPRLPRPRPRPHDDPRP,0.043
17,RRIRRRPPRLPRPRPRPILIPRP,0.118
18,RRIRLRPPRLPRPRPRPHSDPRP,-0.175
19,RRIRLRPPRLPRPRPRPHRMPRP,-0.0961
20,RRIRYRPPRLPRPRPRPMQYPRP,-0.131
21,RRIRFRPPRLPRPRPRPTNNPRP,-0.644
22,RRIRARPPRLPRPRPRPRCLPRP,0.157
23,RRIRQRPPRLPRPRPRPQRMPRP,-0.0094
24,RRIRKRPPRLPRPRPRPDMVPRP,-0.00254
25,RRIRFRPPRLPRPRPRPVEPPRP,-0.228

row,Sequence,shrunken log2 fold change
1,RRIRYRPPRLPRPRPRPFKDPRP,-0.0864
2,RRIRPRPPRLPRPRPRPCTRPRP,2.07
3,RRIRFRPPRLPRPRPRPIPDPRP,-0.215
4,RRIRLRPPRLPRPRPRPAQHPRP,-0.132
5,RRIRFRPPRLPRPRPRPNNGPRP,-0.151
6,RRIRNRPPRLPRPRPRPIRWPRP,0.18
7,RRIRGRPPRLPRPRPRPVSHPRP,0.389
8,RRIRFRPPRLPRPRPRPMSCPRP,0.0282
9,RRIRVRPPRLPRPRPRPHWCPRP,-0.144
10,RRIRQRPPRLPRPRPRPWKTPRP,-0.0168
11,RRIRVRPPRLPRPRPRPNKIPRP,-0.295
12,RRIRNRPPRLPRPRPRPHGYPRP,-0.066
13,RRIRLRPPRLPRPRPRPFCTPRP,-0.105
14,RRIRKRPPRLPRPRPRPPQWPRP,1.37
15,RRIRARPPRLPRPRPRPRCTPRP,0.392
16,RRIRCRPPRLPRPRPRPLTEPRP,0.131
17,RRIRTRPPRLPRPRPRPCFAPRP,0.083
18,RRIRYRPPRLPRPRPRPQMQPRP,-0.794
19,RRIRCRPPRLPRPRPRPARMPRP,0.264
20,RRIRCRPPRLPRPRPRPSKYPRP,-0.635
21,RRIRFRPPRLPRPRPRPKAIPRP,-0.0919
22,RRIRGRPPRLPRPRPRPQCCPRP,0.168
23,RRIRGRPPRLPRPRPRPLKHPRP,0.0581
24,RRIRDRPPRLPRPRPRPPKSPRP,0.555
25,RRIRDRPPRLPRPRPRPVVMPRP,0.194
